Results as given in patent US9738726B2, “HER2-specific monoclonal antibodies and conjugates thereof” (The United States of America, as represented by the …, priority 2013, dated 2017).
“Also recorded” adds a separate entry of the source. Where a SMILES comes first, the peptide text is derived from it. [ ]: non-standard residue; d: D form. The star is where a group is joined. ξ: configuration not given here. Dolaproine = CO[C@@H]([C@@H]1CCCN1)[C@@H](C)C(=O)O; Dil = CC[C@H](C)[C@H](NC)[C@@H](CC(=O)O)OC; NMe2Val = CC(C)[C@@H](C(=O)*)N(C)C; ξV = CC(C)C(N)C(=O)O; X1 = NOCCOCCOCCN*

Tests used:
[1] = tested on: MCF-7 cells (do not express Her2); assay: In vitro cytotoxicity assay, MCF-7 cells; format: cell-based; settings: 72 hours, FIG. 7B
Experimental: (§1) In Vitro Cytotoxicity Assay
(§2) SKBR3, MCF-7 and JIMT-1 cells were cultured and assayed in DMEM (Life Technologies) with 10% (vol/vol) FBS (Gibco), 100 IU/mL penicillin, and 100 µg/mL streptomycin (Life Technologies). For the cytotoxicity assays, the cancer cell lines were plated in 96-well plates at ˜1,000 cells in 70 μL per well in culture medium and incubated overnight at 37° C. and 5% CO2. Drugs (m860 IgG1, m860 ADC and free drug nAF) were filtered (0.22 μm; Millipore) and 30 μl of serially diluted drugs in culture medium were added into the wells in duplicate and incubated at 37° C. for 72 hours. Colorimetric reagent (Promega) was then added to each well. After a 3-hour incubation at 37° C., the absorbance at 490 nm was measured, and IC50 was determined by GraphPad Prism.

[2] = tested on: SKBR3 cells (overexpress Her2); assay: In vitro cytotoxicity assay, SKBR3 cells; format: cell-based; settings: 72 hours, FIG. 7A, listed as WT m860 IgG1
Experimental: as §1, §2

[3] = tested on: JIMT-1 cells (moderate Her2 expression, trastuzumab-resistant patient); assay: In vitro cytotoxicity assay, JIMT-1 cells; format: cell-based; settings: 72 hours, FIG. 7C
Experimental: as §1, §2

[4] = biological target: T1, cell surface-associated Her2 (Homo sapiens, UniProt P04626); assay: Binding to cell surface-associated Her2; settings: compared with trastuzumab (Herceptin)
T1 construct: endogenous in cells

[5] = biological target: T2, Her2-ECD-Fc fusion protein (Homo sapiens, UniProt P04626); assay: Phage ELISA screening of clones panned against Her2-ECD-Fc; format: binding; settings: five unique clones after third round of biopanning
T2 construct: three rounds of panning against a recombinant Her2 protein ectodomain; purchased R&D systems
Experimental: A naïve human Fab phage display library (a total of about […] members), constructed from peripheral blood B cells of 10 healthy donors, was used for selection of Fabs against Her2-ECD-Fc fusion protein (R&D systems) conjugated to magnetic beads (DYNABEADS™ M-270 epoxy, Invitrogen). […] After each round of incubation, the beads were washed 5 times for the first round and 15 times for the later rounds with phosphate-buffered saline containing 0.05% Tween 20 (PBST) to remove nonspecifically bound phage. The bead-bound phage were mixed with TG1 cells for 1 hour at 37° C., and the phage was amplified from the infected cells and used in the next round of biopanning. After the third round of biopanning, 190 clones were randomly picked and monoclonal phage was prepared and used for phage ELISA screening to identify the positive binders. […] The nucleotide and amino acid sequences of the m860 VH and VL domains are set forth herein as SEQ ID NOs: 1-4.

FcγRI (CD64) = FcγRI (CD64) (Homo sapiens, UniProt P12314); assay: Surface plasmon resonance (Biacore) binding to FcγRI (CD64); settings: SPR, FcγRI immobilized on CM5 chip, 25° C., 1:1 model
Experimental: (§3) Comparison of the Binding Affinities of m860 and m860 ADC to FcγRIII (CD16) and FcγRI (CD64) Measured by Surface Plasmon Resonance
(§4) Interactions between the antibodies and CD16 and CD64 were analyzed by surface plasmon resonance technology using a Biacore™ X100 instrument (GE healthcare). CD16 or CD64 was covalently immobilized onto a sensor chip (CM5) using carbodiimide coupling chemistry. A control reference surface was prepared for nonspecific binding and refractive index changes. For analysis of the kinetics of interactions, varying concentrations of antibodies were injected at flow rate of 30 μL/min using running buffer containing 10 mmol/L HEPES, 150 mmol/L NaCl, 3 mmol/L EDTA, and 0.05% Surfactant P-20 (pH=7.4). The association and dissociation phase data were fitted simultaneously to a 1:1 model by using BIAevaluation 3.2. All the experiments were done at 25° C.

FcγRIII (CD16) = assay: Surface plasmon resonance (Biacore) binding to FcγRIII (CD16); settings: SPR, FcγRIII immobilized on CM5 chip, 25° C., 1:1 model
Experimental: as §3, §4

Her2 on SKBR3 cells = biological target: T3, Her2 on SKBR3 cells (Homo sapiens, UniProt P04626); assay: Flow cytometry binding to Her2 on SKBR3 cells; settings: FIGS. 6A-6B
T3 construct: SKBR3 breast cancer cells, which overexpress Her2, were detached in cell dissociation buffer; endogenous in cells; host or cells: SKBR3 breast cancer cells
Experimental: SKBR3 breast cancer cells, which overexpress Her2, were detached in cell dissociation buffer and rinsed in PBS. […] Unbound antibodies were washed away with PBSA. The secondary antibody, goat anti-human IgG conjugated with PE (Sigma), was diluted at 1:100 and incubated with cells on ice for 30 minutes. Cells were washed and resuspended in PBSA buffer for flow cytometry analysis on FACSCalibur (Becton Dickinson).

Her2 = Her2 (Homo sapiens, UniProt P04626); assay: Competition with Herceptin / epitope comparison; format: binding

FcγRI (CD64), sequence (P12314 16-374, species assumed): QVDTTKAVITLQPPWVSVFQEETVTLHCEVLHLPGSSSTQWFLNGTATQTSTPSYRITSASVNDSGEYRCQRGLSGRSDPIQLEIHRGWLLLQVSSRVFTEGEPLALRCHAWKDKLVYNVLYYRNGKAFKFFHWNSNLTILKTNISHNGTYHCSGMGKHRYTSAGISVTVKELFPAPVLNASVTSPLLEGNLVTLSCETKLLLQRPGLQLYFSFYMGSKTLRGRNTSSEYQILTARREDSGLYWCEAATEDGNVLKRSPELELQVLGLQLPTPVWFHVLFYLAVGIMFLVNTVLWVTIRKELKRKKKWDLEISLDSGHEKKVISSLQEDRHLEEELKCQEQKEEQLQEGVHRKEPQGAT

Row | Molecule | cytotoxicity [1] | cytotoxicity [2] | cytotoxicity [3] | affinity for cell surface-associated Her2 [4] | binding activity in phage ELISA screening [5] | Kd (FcγRI (CD64)) [nM] | ka (FcγRI (CD64)) [M⁻¹ s⁻¹] | kd (FcγRI (CD64)) [s⁻¹] | Kd (FcγRIII (CD16)) [nM] | ka (FcγRIII (CD16)) [M⁻¹ s⁻¹] | kd (FcγRIII (CD16)) [s⁻¹] | binding activity to Her2 on SKBR3 cells before and after nAF conjugation (Her2 on SKBR3 cells) | competition with Herceptin / epitope relative to trastuzumab (Her2)
1 | CC[C@H](C)[C@@H]([C@@H](CC(=O)N1CCC[C@H]1[C@H](OC)[C@@H](C)C(=O)N[C@@H](Cc1ccccc1)C(=O)NCCOCCOCCON)OC)N(C)C(=O)C(NC(=O)[C@H](C(C)C)N(C)C)C(C)C (stereo partly shown) [nAF, Auristatin F with a non-cleavable linker attached at the C-terminus] (NMe2Val-[ξV][Dil][Dolaproine]F-X1) | significant cytotoxicity | – | – | – | – | – | – | – | – | – | – | – | –
2 | M860 IgG1: Her2-specific human monoclonal antibody from naïve phage display Fab library, VH SEQ ID NO: 2, VL SEQ ID NO: 4, converted to full size human IgG1 (antibody, V domains shown, IgG1 constant regions without entry) VH: EVQLVQSGAEVKKPGESLKISCKGSGYSFTSYWIGWVRQMPGKGLEWMGIIYPGDCDRSDTRYSPSFQGQVTISADKSISTAYLQWSSLKASDTAMYYCARQYSGYDRYYFDYWGQGTLVTVSS VL: QTVVTQEPSFSVSPGGTVTLTCGLNSGSVSTRHYPSWYQQTPGQAPRTLIYSTDICDRRSSGAPSHISGSILGNKAALTITGAQADDASDYYCALYLGNGIAVFGSGTKVTVLG | – | did not exhibit any cytotoxicity; also recorded: did not show any cytotoxicity | little effect | comparable to that of trastuzumab | highest binding activity | 22.5 | 44790 | 0.001007 | 1500 | 11080 | 0.01608 | not impacted by nAF conjugation | binds to a different epitope
